# According to patent publication US20030165463:
# Target: Cre recombinase (Bacteriophage P1?) (UniProt P06956)
# Experiment: cell_activity
# Settings: pCA36 + pBHGloxΔE1,3 in 293Cre4 cells; 15 in 293 cells, homologous recombination background only
# UniProt P06956, sequence (P06956 whole entry): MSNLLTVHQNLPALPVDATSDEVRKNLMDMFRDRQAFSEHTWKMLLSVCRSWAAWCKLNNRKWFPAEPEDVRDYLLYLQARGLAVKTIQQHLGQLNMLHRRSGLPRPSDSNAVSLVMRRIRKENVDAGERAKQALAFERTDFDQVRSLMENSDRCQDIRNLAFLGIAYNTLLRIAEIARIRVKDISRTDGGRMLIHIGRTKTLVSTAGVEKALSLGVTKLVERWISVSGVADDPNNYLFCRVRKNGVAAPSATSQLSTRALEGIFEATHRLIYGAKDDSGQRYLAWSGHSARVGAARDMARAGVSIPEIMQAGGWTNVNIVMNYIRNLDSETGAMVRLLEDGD
substance,measurement,value
shuttle plasmid pCA36 without loxP,activity (total plaques in 6 dishes),10
